Test results reported in the supplement of paper PMC9112550, “Optimization of the antimicrobial peptide Bac7 by deep mutational scanning” (BMC Biology, 2022).

Test system: Escherichia coli TOP10
Assay: shrunken log2 fold change of peptide-encoding DNA abundance (4.5 h post-induction vs induction); higher = less antimicrobial activity (less host growth inhibition)
Settings: time post-induction: 4.5 h; library: site-saturation at positions 5, 18, 19, 20
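Also: peptides expressed intracellularly from a pBAD plasmid library in pooled LB shake-flask culture, induced with 0.3% L-arabinose, DNA abundance read by NGS, three biological replicates, DESeq2 with apeglm shrinkage.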

Sequence	shrunken log2 fold change
RRIRWRPPRLPRPRPRPWFSPRP	0.0565
RRIRVRPPRLPRPRPRPFDWPRP	-0.103
RRIRYRPPRLPRPRPRPFCCPRP	-0.509
RRIRLRPPRLPRPRPRPLFYPRP	-0.238
RRIRERPPRLPRPRPRPDQYPRP	-0.0158
RRIRYRPPRLPRPRPRPLRIPRP	-0.36
RRIRERPPRLPRPRPRPTCPPRP	-0.103
RRIRGRPPRLPRPRPRPRLVPRP	0.725
RRIRMRPPRLPRPRPRPECKPRP	0.0491
RRIRDRPPRLPRPRPRPLKVPRP	-0.0261
RRIRMRPPRLPRPRPRPINMPRP	-0.0607
RRIRSRPPRLPRPRPRPQQDPRP	-0.164
RRIRTRPPRLPRPRPRPQVYPRP	-0.168
RRIRERPPRLPRPRPRPIAMPRP	0.188
RRIRGRPPRLPRPRPRPREIPRP	1.1
RRIRMRPPRLPRPRPRPHPHPRP	0.187
RRIRYRPPRLPRPRPRPHWHPRP	-0.912
RRIRGRPPRLPRPRPRPDRSPRP	0.23
RRIRSRPPRLPRPRPRPYWQPRP	-0.551
RRIRSRPPRLPRPRPRPMVEPRP	0.884
RRIRHRPPRLPRPRPRPVIKPRP	-0.0701
RRIRVRPPRLPRPRPRPPDSPRP	-0.136
RRIRNRPPRLPRPRPRPAPHPRP	0.227
RRIRERPPRLPRPRPRPHETPRP	-0.0135
RRIRARPPRLPRPRPRPEFMPRP	0.115

Sequence	shrunken log2 fold change
RRIRFRPPRLPRPRPRPYNMPRP	-0.725
RRIRDRPPRLPRPRPRPVLCPRP	0.28
RRIRGRPPRLPRPRPRPFWGPRP	0.289
RRIRSRPPRLPRPRPRPRPKPRP	0.518
RRIRGRPPRLPRPRPRPAIYPRP	0.302
RRIRARPPRLPRPRPRPGAAPRP	1.1
RRIRMRPPRLPRPRPRPYAPPRP	-0.24
RRIRLRPPRLPRPRPRPCLKPRP	-0.682
RRIRHRPPRLPRPRPRPCNFPRP	-0.74
RRIRARPPRLPRPRPRPITPPRP	-0.0533
RRIRFRPPRLPRPRPRPPNHPRP	-0.0407
RRIRGRPPRLPRPRPRPHNLPRP	-0.262
RRIRRRPPRLPRPRPRPCIVPRP	-0.183
RRIRQRPPRLPRPRPRPLQNPRP	0.139
RRIRYRPPRLPRPRPRPFHYPRP	-0.21
RRIRTRPPRLPRPRPRPWCLPRP	-0.596
RRIRVRPPRLPRPRPRPDISPRP	-0.0643
RRIRDRPPRLPRPRPRPWWAPRP	0.61
RRIRIRPPRLPRPRPRPMTFPRP	-0.0432
RRIRIRPPRLPRPRPRPGCFPRP	-0.0641
RRIRSRPPRLPRPRPRPACYPRP	-0.0386
RRIRRRPPRLPRPRPRPENVPRP	-0.0722
RRIRYRPPRLPRPRPRPPWWPRP	0.605
RRIRCRPPRLPRPRPRPEETPRP	0.143
RRIRPRPPRLPRPRPRPDNEPRP	-0.0784

Sequence	shrunken log2 fold change
RRIRERPPRLPRPRPRPTHYPRP	-0.312
RRIRHRPPRLPRPRPRPKSMPRP	-0.503
RRIRFRPPRLPRPRPRPCNTPRP	-0.0482
RRIRDRPPRLPRPRPRPSWDPRP	0.199
RRIRFRPPRLPRPRPRPCLWPRP	-0.0174
RRIRWRPPRLPRPRPRPEHGPRP	0.265
RRIRARPPRLPRPRPRPQNMPRP	-0.497
RRIRDRPPRLPRPRPRPLKEPRP	-0.277
RRIRPRPPRLPRPRPRPEMFPRP	-0.112
RRIRSRPPRLPRPRPRPDLGPRP	0.0168
RRIRKRPPRLPRPRPRPVGIPRP	0.131
RRIRPRPPRLPRPRPRPTDEPRP	-0.128
RRIRARPPRLPRPRPRPYSGPRP	-0.0581
RRIRFRPPRLPRPRPRPSHKPRP	-0.121
RRIRHRPPRLPRPRPRPFCKPRP	-0.571
RRIRRRPPRLPRPRPRPYRPPRP	-0.0416
RRIRERPPRLPRPRPRPQQEPRP	-0.0361
RRIRCRPPRLPRPRPRPSMHPRP	-0.346
RRIRTRPPRLPRPRPRPHTIPRP	-0.314
RRIRGRPPRLPRPRPRPWVMPRP	0.0476
RRIRSRPPRLPRPRPRPQGIPRP	0.0897
RRIRLRPPRLPRPRPRPYSCPRP	-0.458
RRIRYRPPRLPRPRPRPNKDPRP	-1.01
RRIRGRPPRLPRPRPRPPSPPRP	1.01
RRIRNRPPRLPRPRPRPMAQPRP	0.0103

Sequence	shrunken log2 fold change
RRIRARPPRLPRPRPRPKGPPRP	0.212
RRIRGRPPRLPRPRPRPVMVPRP	0.128
RRIRDRPPRLPRPRPRPKEDPRP	0.337
RRIRPRPPRLPRPRPRPYLIPRP	-0.445
RRIRHRPPRLPRPRPRPHNHPRP	-0.577
RRIRHRPPRLPRPRPRPMQLPRP	-0.366
RRIRIRPPRLPRPRPRPGWWPRP	0.405
RRIRIRPPRLPRPRPRPCLCPRP	2.05
RRIRGRPPRLPRPRPRPLKDPRP	0.125
RRIRIRPPRLPRPRPRPATMPRP	-0.0977
RRIRNRPPRLPRPRPRPSSDPRP	-0.171
RRIRMRPPRLPRPRPRPDEIPRP	2.86
RRIRIRPPRLPRPRPRPPGQPRP	-0.125
RRIRPRPPRLPRPRPRPRYNPRP	-0.522
RRIRNRPPRLPRPRPRPVEEPRP	0.0471
RRIRARPPRLPRPRPRPQQWPRP	0.2
RRIRYRPPRLPRPRPRPKDFPRP	0.00489
RRIRHRPPRLPRPRPRPVHPPRP	-0.131
RRIRRRPPRLPRPRPRPVLGPRP	0.528
RRIRARPPRLPRPRPRPDLYPRP	0.00132
RRIRKRPPRLPRPRPRPMPGPRP	0.0564
RRIRARPPRLPRPRPRPGQSPRP	0.266
RRIRGRPPRLPRPRPRPWEQPRP	0.724
RRIRFRPPRLPRPRPRPYAHPRP	-0.18
RRIRPRPPRLPRPRPRPVKEPRP	0.0267

Sequence	shrunken log2 fold change
RRIRYRPPRLPRPRPRPRVNPRP	0.00364
RRIRYRPPRLPRPRPRPDNTPRP	-0.325
RRIRKRPPRLPRPRPRPSTVPRP	-0.159
RRIRLRPPRLPRPRPRPKLRPRP	-0.00715
RRIRLRPPRLPRPRPRPNDYPRP	-0.582
RRIRLRPPRLPRPRPRPLAQPRP	0.73
RRIRQRPPRLPRPRPRPWMHPRP	0.0573
RRIRWRPPRLPRPRPRPVCEPRP	0.825
RRIRGRPPRLPRPRPRPGPDPRP	0.62
RRIRDRPPRLPRPRPRPERQPRP	-0.00783
RRIRTRPPRLPRPRPRPTETPRP	0.171
RRIRWRPPRLPRPRPRPIDLPRP	0.0151
RRIRTRPPRLPRPRPRPHTEPRP	-0.215
RRIRERPPRLPRPRPRPTCGPRP	0.497
RRIRFRPPRLPRPRPRPFYRPRP	-0.202
RRIRIRPPRLPRPRPRPDLTPRP	-0.00701
RRIRLRPPRLPRPRPRPRNTPRP	-0.0367
RRIRKRPPRLPRPRPRPTEKPRP	0.247
RRIRRRPPRLPRPRPRPYLRPRP	0.0234
RRIRYRPPRLPRPRPRPNDTPRP	-0.921
RRIRHRPPRLPRPRPRPVYPPRP	-0.529
RRIRLRPPRLPRPRPRPDDGPRP	-0.00277
RRIRIRPPRLPRPRPRPDLCPRP	-0.101
RRIRTRPPRLPRPRPRPVMWPRP	-0.11
RRIRYRPPRLPRPRPRPGNGPRP	-0.234

Sequence	shrunken log2 fold change
RRIRYRPPRLPRPRPRPRDPPRP	0.271
RRIRDRPPRLPRPRPRPFNQPRP	-0.733
RRIRPRPPRLPRPRPRPYEAPRP	-0.282
RRIRCRPPRLPRPRPRPDVNPRP	-0.281
RRIRQRPPRLPRPRPRPGEDPRP	-0.0999
RRIRMRPPRLPRPRPRPCYNPRP	-0.247
RRIRNRPPRLPRPRPRPLCIPRP	-0.598
RRIRVRPPRLPRPRPRPWVFPRP	0.284
RRIRCRPPRLPRPRPRPRFAPRP	0.356
RRIRERPPRLPRPRPRPTRGPRP	0.0807
RRIRARPPRLPRPRPRPTLLPRP	0.286
RRIRRRPPRLPRPRPRPSDHPRP	-0.0811
RRIRRRPPRLPRPRPRPPGFPRP	0.468
RRIRKRPPRLPRPRPRPLKDPRP	-0.22
RRIRLRPPRLPRPRPRPWVDPRP	-0.0575
RRIRVRPPRLPRPRPRPWYEPRP	-0.337
RRIRWRPPRLPRPRPRPLIDPRP	0.00313
RRIRLRPPRLPRPRPRPNIYPRP	-0.585
RRIRVRPPRLPRPRPRPKDFPRP	0.123
RRIRMRPPRLPRPRPRPVFPPRP	0.0941
RRIRCRPPRLPRPRPRPSVLPRP	0.0648
RRIRERPPRLPRPRPRPEGMPRP	0.046
RRIRMRPPRLPRPRPRPFCGPRP	-0.0687
RRIRSRPPRLPRPRPRPAVYPRP	-0.585
RRIRPRPPRLPRPRPRPYQTPRP	0.0331
